# Measured values published in the supplement of paper PMC10567573.
# B1: PDLIM4 (parent)
# chain: FLDERLYCESHAKARVKPPEGYDV
# Variants of: B1
# Experiment: protein stability index of a GFP-peptide fusion (GPS, HEK-293T) (PSI 1-6); higher = more stable
# Conditions: c terminus: a fixed tail appended
# 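Further: lentivirally expressed fusions sorted by FACS into six bins by GFP to DsRed ratio, PSI derived from sequencing read proportions per bin multiplied by bin number.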
row,Variant,protein stability index
1,FLQERLYCESHAKARVKPPEGYDV,1.53
2,FLDERLYCESHAKFRVKPPEGYDV,1.65
3,FLAERLYCESHAKARVKPPEGYDV,2.14
4,FLDERLYCESHAKARDKPPEGYDV,2.14
5,FLDERLYCEMHAKARVKPPEGYDV,2.54
6,FLDEDLYCESHAKARVKPPEGYDV,2.11
7,FLDERLYCKSHAKARVKPPEGYDV,1.42
8,FLDERLYCESRAKARVKPPEGYDV,1.79
9,FLDERLYCECHAKARVKPPEGYDV,1.95
10,FLDERLYCESAAKARVKPPEGYDV,1.85
11,FLDERLYCESHMKARVKPPEGYDV,1.53
12,FLDERLYRESHAKARVKPPEGYDV,1.81
13,FLDERLYCESHAKARVKTPEGYDV,1.71
14,FLDERLYCESHAKARVQPPEGYDV,1.86
15,FLDERLYCESHACARVKPPEGYDV,1.21
16,FLDERLYCESHAKARVKPSEGYDV,1.11
17,FLDERLACESHAKARVKPPEGYDV,2.63
18,FLDERLYCESHAKARVNPPEGYDV,1.87
19,FQDERLYCESHAKARVKPPEGYDV,2.12
20,FLDERLYCESHAKARVKPPEWYDV,1.49
21,FLDEREYCESHAKARVKPPEGYDV,3.09
22,FLDERLYCESHAKARVAPPEGYDV,1.91
23,FLDERLYCESHAKARVKPDEGYDV,2.15
24,FLDERLYCESLAKARVKPPEGYDV,1.48

row,Variant,protein stability index
1,FLDERLYCQSHAKARVKPPEGYDV,1.44
2,FLDERLYCESHAKARVKPPEGCDV,2.75
3,FLDERLYCEQHAKARVKPPEGYDV,1.88
4,FLDERLYCESHAKARVKPPEGRDV,2.71
5,FLDERLYCEAHAKARVKPPEGYDV,1.44
6,FLDERLYCESHAKARVKPPENYDV,2.4
7,FLDERLYCESHAKARVKPPAGYDV,2.53
8,FPDERLYCESHAKARVKPPEGYDV,2.98
9,FLDERLYCESHAKARVKPMEGYDV,1.77
10,FLDERLYCESHAKARVKPPEIYDV,2.25
11,PLDERLYCESHAKARVKPPEGYDV,5
12,FLDERHYCESHAKARVKPPEGYDV,1.72
13,FLDESLYCESHAKARVKPPEGYDV,2.37
14,FLDERLYCESHAKARVKPPEPYDV,1.8
15,FLDERLYCEYHAKARVKPPEGYDV,2.75
16,FLDERLYCESHAKARVKYPEGYDV,2.46
17,FLDERLYCESHAKARVKPPEFYDV,1.72
18,FLDERLYCESHAKARVKFPEGYDV,2.16
19,FLDERLYCESHAKARVKPPDGYDV,1.74
20,FLDERRYCESHAKARVKPPEGYDV,1.45
21,FLDERSYCESHAKARVKPPEGYDV,2.47
22,FLDERLYLESHAKARVKPPEGYDV,2.26
23,FLDERLYCESHAKARVKIPEGYDV,1.01
24,FLDERLYCESHAKARVKPNEGYDV,1.21

row,Variant,protein stability index
1,FLDERLYCESHAKARVKPPVGYDV,3
2,FMDERLYCESHAKARVKPPEGYDV,1.67
3,FLDERLYCESHAKARVHPPEGYDV,1.88
4,FLDERLYCESHAKARVKPCEGYDV,2.26
5,FLDERLYCESHAKQRVKPPEGYDV,2.29
6,FNDERLYCESHAKARVKPPEGYDV,3.48
7,FKDERLYCESHAKARVKPPEGYDV,3.99
8,FLDERLYCESHAKARVKPPEGYDY,1.6
9,FLDERLYCESHAKARHKPPEGYDV,1.92
10,FLDERLYCESHAKDRVKPPEGYDV,1.36
11,FLDERLYCESHAKARVKPPEGYDH,1.63
12,FLDERLYCESHAKARVRPPEGYDV,1.87
13,FLDERLYCESHAKARVKPPPGYDV,3.31
14,FLDERLYCESHAKARVKPPEGYDS,2.82
15,FLDERLYCESHAKARVDPPEGYDV,1.27
16,FLDERLKCESHAKARVKPPEGYDV,4.06
17,FLDERLYCESHAKARVKPPEGYDM,2.12
18,FLDEYLYCESHAKARVKPPEGYDV,1.42
19,FLDERLYCESHAKARVKVPEGYDV,1.96
20,FLKERLYCESHAKARVKPPEGYDV,2.49
21,RLDERLYCESHAKARVKPPEGYDV,4.28
22,FLDERLYCESHANARVKPPEGYDV,1.36
23,FLDERLYCESHAKIRVKPPEGYDV,2.02
24,FLDERLYCEWHAKARVKPPEGYDV,3.67

row,Variant,protein stability index
1,FLDERLYCEFHAKARVKPPEGYDV,1.61
2,FLDERLYCESHAKARVKPPEVYDV,2.34
3,FLDERLYCESHAKARVKPPEHYDV,1.59
4,FLDERLYCESHAKAIVKPPEGYDV,2.03
5,FLDERLYCESHAKARVKPPEGYYV,2.45
6,FLDERLYCESHAKARVKPPEGYDG,1.51
7,FLDERLYTESHAKARVKPPEGYDV,2.62
8,FLDERLYCESHAKAKVKPPEGYDV,2.18
9,FLDERLYCESHAKARVKPPELYDV,1.77
10,FLDERLYCNSHAKARVKPPEGYDV,2.58
11,FLDERTYCESHAKARVKPPEGYDV,2.55
12,FLDERLYCESHAKARVKPPRGYDV,2.7
13,FWDERLYCESHAKARVKPPEGYDV,2.47
14,FLDERLLCESHAKARVKPPEGYDV,3.18
15,FLVERLYCESHAKARVKPPEGYDV,2.5
16,FLCERLYCESHAKARVKPPEGYDV,3.79
17,FLDERQYCESHAKARVKPPEGYDV,2.5
18,FLDERLYCGSHAKARVKPPEGYDV,1.74
19,FLDERLYCESHAKARKKPPEGYDV,3.09
20,FLDERLYNESHAKARVKPPEGYDV,2.59
21,FLDERLYCESEAKARVKPPEGYDV,1.34
22,FLDERLYCSSHAKARVKPPEGYDV,1.97
23,FLDERLYCESMAKARVKPPEGYDV,2.23
24,FLDERLYDESHAKARVKPPEGYDV,3.78

row,Variant,protein stability index
1,FLDERLYCEVHAKARVKPPEGYDV,1.4
2,FLDERLYCESHAKARVKPPSGYDV,1.4
3,FLDERKYCESHAKARVKPPEGYDV,2.09
4,FLDERLYCESHAKARVKQPEGYDV,2.38
5,FLDERLYCESHAKARVKPPEGYDN,2.32
6,FLDERLYCESHAKARVKPPEDYDV,2.94
7,FLDERLYCESHAKAFVKPPEGYDV,2.33
8,FLDERLYCESSAKARVKPPEGYDV,1.98
9,FLDERLYVESHAKARVKPPEGYDV,2.28
10,FLDERLYCESHAKARVKPPEGDDV,1.53
11,FLDERLYCESHAKARMKPPEGYDV,1.53
12,FLDERLYCESHAKARVKPPEGYHV,3.11
13,FLDERLMCESHAKARVKPPEGYDV,3.6
14,FLDERLYQESHAKARVKPPEGYDV,2.44
15,FDDERLYCESHAKARVKPPEGYDV,4.28
16,FLDERLECESHAKARVKPPEGYDV,4.06
17,FLDYRLYCESHAKARVKPPEGYDV,2.02
18,FLDERLYCESHAKARVKPPEGYQV,2.23
19,FLDDRLYCESHAKARVKPPEGYDV,1.71
20,FLDERLYCESHAKARVKPPEGYAV,1.48
21,FLDERLYCESHAKARVKPFEGYDV,1.93
22,FLDERLYCESHAKGRVKPPEGYDV,2.7
23,FLDEWLYCESHAKARVKPPEGYDV,3.09
24,FLFERLYCESHAKARVKPPEGYDV,2.66

row,Variant,protein stability index
1,FLDERLYYESHAKARVKPPEGYDV,2.17
2,FLDERLYCESHAKARVKPPEGSDV,1.04
3,FLDERLYCESHAKARVKPPEGYDL,1.03
4,FLDERLYCESHAKARVKPPESYDV,1.69
5,FLDERLYCESHAKARTKPPEGYDV,3.71
6,FLDERLYCESHAKAHVKPPEGYDV,3.03
7,FLDERLYCEIHAKARVKPPEGYDV,2.17
8,FLDERLHCESHAKARVKPPEGYDV,4.05
9,FLDEALYCESHAKARVKPPEGYDV,1.86
10,FLDERLYCESHAKARVKPPEGYDI,2.47
11,FLDERLFCESHAKARVKPPEGYDV,2.79
12,FLDERLYCETHAKARVKPPEGYDV,1.79
13,FLDRRLYCESHAKARVKPPEGYDV,3.33
14,MLDERLYCESHAKARVKPPEGYDV,4.29
15,FLDERLYCESHAKARVKPPEGYIV,1.81
16,FLLERLYCESHAKARVKPPEGYDV,2.27
17,FLDERLYCESHAKARAKPPEGYDV,1.75
18,FLDERFYCESHAKARVKPPEGYDV,3.03
19,FLDERLYCESHAKARVIPPEGYDV,1.33
20,FGDERLYCESHAKARVKPPEGYDV,3.4
21,FLDERLYCESHAKARVKPPMGYDV,2.03
22,FLDERLYCESHAKARVKPPEGYCV,1.65
23,FLIERLYCESHAKARVKPPEGYDV,1.94
24,FLDERLYCESHAKAAVKPPEGYDV,2.13

row,Variant,protein stability index
1,FLDERLYCESHAKARVKPPEKYDV,1.63
2,FLDERLYCESHAQARVKPPEGYDV,1.61
3,FLDERLYCESHAKARVKPPEGGDV,2.68
4,FLDERLYCLSHAKARVKPPEGYDV,2.34
5,FLDERLYEESHAKARVKPPEGYDV,3.52
6,FLDERLCCESHAKARVKPPEGYDV,3.66
7,FLDERLYCESHTKARVKPPEGYDV,2.04
8,FLDERLYCESHAKARVKPPEQYDV,2.4
9,FLDERLYCESHAKARVKPPEGYKV,2.53
10,FLDERLYCESHAKSRVKPPEGYDV,2.01
11,FLDERLYCESHAKARVKPPEGLDV,1.15
12,FLDERLYCESHAKARVKPPEGYDD,1.33
13,FLDERLYCESHIKARVKPPEGYDV,1.6
14,ILDERLYCESHAKARVKPPEGYDV,4.27
15,FLDERLYCESHAKARVKPPQGYDV,3.09
16,FLDERLYCESHRKARVKPPEGYDV,1.82
17,FLDEFLYCESHAKARVKPPEGYDV,1.52
18,FLDERLYCESHAKARVKPWEGYDV,2.75
19,KLDERLYCESHAKARVKPPEGYDV,4.43
20,FLDERLYCESHAMARVKPPEGYDV,2.85
21,FLDERLYCESHAKARVKPPEMYDV,2.4
22,VLDERLYCESHAKARVKPPEGYDV,3.92
23,FLDERLYCESHAKARVFPPEGYDV,2.12
24,FLDERLYCESHAKARVKPPEGWDV,1.28

row,Variant,protein stability index
1,FLDERMYCESHAKARVKPPEGYDV,2.87
2,FLSERLYCESHAKARVKPPEGYDV,1.03
3,FLDERLYCESFAKARVKPPEGYDV,1.48
4,FLDERLYCESHAKLRVKPPEGYDV,1.75
5,FLDERLYCESHAKAQVKPPEGYDV,2.41
6,FLHERLYCESHAKARVKPPEGYDV,2.39
7,FLDERLYCESHAKARVKPPEGYDW,1.91
8,FLDERLYCESHAKARVPPPEGYDV,2.25
9,FLDERLYCESHAKYRVKPPEGYDV,2.23
10,FLDERLYCESHAKARVKPPEGNDV,2.65
11,FLDERLYCESHQKARVKPPEGYDV,1.37
12,QLDERLYCESHAKARVKPPEGYDV,4.58
13,FLDERLYCESHAKARVKPHEGYDV,1.72
14,FLDERLYCEPHAKARVKPPEGYDV,2.32
15,FLDERLYCESHAKARVKPPEGYWV,1.81
16,FLDERVYCESHAKARVKPPEGYDV,1.59
17,FLDERLYCESHAKARVKEPEGYDV,1.75
18,FLDERLYCESHAKAYVKPPEGYDV,1.58
19,FLDENLYCESHAKARVKPPEGYDV,1.49
20,FLDERLYCESHAKARGKPPEGYDV,1.57
